How the values were obtained:
VEGFR1 = target: T1, VEGFR1 (Rattus norvegicus, UniProt P53767); test: [125I]-VEGF-A saturation binding to isolated LSECs at 4°C, Scatchard
T1 chain: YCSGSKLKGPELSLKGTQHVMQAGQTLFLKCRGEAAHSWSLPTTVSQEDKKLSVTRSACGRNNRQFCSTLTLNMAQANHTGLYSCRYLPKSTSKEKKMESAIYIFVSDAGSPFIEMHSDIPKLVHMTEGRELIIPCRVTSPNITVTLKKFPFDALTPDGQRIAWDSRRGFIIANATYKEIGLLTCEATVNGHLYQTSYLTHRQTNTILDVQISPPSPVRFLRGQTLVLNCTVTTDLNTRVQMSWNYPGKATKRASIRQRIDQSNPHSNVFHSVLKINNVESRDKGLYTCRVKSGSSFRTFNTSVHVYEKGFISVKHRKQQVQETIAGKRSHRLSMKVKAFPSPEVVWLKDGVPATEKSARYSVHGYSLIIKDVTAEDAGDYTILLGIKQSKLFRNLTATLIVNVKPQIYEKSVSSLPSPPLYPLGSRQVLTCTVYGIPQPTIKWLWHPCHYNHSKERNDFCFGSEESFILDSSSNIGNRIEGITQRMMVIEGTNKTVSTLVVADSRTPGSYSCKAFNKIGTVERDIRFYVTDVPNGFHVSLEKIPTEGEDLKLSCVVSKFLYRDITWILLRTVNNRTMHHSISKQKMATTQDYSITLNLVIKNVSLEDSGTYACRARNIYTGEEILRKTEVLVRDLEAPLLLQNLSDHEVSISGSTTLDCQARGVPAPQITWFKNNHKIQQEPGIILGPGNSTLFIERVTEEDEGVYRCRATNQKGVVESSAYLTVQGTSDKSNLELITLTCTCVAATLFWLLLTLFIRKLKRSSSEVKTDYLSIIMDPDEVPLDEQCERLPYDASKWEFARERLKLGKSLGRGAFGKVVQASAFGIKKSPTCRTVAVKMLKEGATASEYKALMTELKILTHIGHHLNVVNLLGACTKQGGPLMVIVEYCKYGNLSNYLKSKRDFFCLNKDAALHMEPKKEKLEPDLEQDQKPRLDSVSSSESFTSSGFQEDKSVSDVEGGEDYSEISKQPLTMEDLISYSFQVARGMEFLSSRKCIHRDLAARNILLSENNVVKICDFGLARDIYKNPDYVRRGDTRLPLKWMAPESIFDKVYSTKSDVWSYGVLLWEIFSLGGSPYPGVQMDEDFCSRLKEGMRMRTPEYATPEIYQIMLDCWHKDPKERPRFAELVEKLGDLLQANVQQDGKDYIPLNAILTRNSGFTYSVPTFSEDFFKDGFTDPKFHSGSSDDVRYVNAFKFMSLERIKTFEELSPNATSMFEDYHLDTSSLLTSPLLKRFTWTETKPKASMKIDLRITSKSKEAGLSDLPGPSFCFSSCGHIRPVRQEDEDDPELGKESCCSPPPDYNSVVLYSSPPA

VEGFR2 = target: T2, VEGFR2 (Rattus norvegicus, UniProt O08775); test: as above
T2 chain: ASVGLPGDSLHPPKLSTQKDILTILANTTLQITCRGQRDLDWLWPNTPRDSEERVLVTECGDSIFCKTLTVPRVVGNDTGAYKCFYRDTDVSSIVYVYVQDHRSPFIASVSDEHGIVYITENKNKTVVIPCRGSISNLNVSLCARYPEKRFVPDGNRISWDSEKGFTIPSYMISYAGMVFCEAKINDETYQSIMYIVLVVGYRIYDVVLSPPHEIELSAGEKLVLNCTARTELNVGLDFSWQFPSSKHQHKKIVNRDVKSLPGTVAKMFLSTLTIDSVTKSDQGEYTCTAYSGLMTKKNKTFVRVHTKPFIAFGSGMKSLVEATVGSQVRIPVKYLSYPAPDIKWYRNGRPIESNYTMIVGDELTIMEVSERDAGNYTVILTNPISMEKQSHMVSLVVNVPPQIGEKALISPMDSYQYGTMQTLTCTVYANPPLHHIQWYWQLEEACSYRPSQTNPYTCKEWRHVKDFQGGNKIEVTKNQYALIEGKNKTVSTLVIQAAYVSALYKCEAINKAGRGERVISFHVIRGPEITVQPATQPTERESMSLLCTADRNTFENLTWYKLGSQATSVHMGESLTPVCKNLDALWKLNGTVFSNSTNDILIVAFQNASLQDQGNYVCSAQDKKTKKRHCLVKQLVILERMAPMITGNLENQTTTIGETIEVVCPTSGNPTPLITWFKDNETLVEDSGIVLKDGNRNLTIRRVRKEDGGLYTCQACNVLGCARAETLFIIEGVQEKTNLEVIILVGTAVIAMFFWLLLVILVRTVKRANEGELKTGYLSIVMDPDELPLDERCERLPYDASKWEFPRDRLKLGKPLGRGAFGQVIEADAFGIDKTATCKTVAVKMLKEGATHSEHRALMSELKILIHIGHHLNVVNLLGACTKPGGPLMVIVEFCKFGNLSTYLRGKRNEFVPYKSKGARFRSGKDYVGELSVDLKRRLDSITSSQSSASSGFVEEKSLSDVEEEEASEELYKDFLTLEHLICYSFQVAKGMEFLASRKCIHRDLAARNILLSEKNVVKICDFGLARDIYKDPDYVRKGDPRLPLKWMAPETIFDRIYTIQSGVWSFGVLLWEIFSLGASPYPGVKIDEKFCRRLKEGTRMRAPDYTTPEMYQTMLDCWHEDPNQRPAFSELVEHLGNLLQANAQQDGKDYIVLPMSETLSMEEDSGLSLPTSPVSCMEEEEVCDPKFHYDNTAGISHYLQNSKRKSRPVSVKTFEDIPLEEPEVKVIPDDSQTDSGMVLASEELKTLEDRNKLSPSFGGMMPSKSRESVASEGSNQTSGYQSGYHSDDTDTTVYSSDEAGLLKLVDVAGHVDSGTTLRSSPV

- Kd (VEGFR1): 8 pM
- Kd (VEGFR2): 0.21 nM
B1: VEGF-A165 (protein)
chain: MTDRQTDTAPSPSYHLLPGRRRTVDAAASRGQGPEPAPGGGVEGVGARGVALKLFVQLLGCSRFGGAVVRAGEAEPSGAARSASSGREEPQPEEGEEEEEKEEERGPQWRLGARKPGSWTGEAAVCADSAPAARAPQALARASGRGGRVARRGAEESGPPHSPSRRGSASRAGPGRASETMNFLLSWVHWSLALLLYLHHAKWSQAAPMAEGGGQNHHEVVKFMDVYQRSYCHPIETLVDIFQEYPDEIEYIFKPSCVPLMRCGGCCNDEGLECVPTEESNITMQIMRIKPHQGQHIGEMSFLQHNKCECRPKKDRARQEKKSVRGKGKGQKRKRKKSRYKSWSVPCGPCSERRKHLFVQDPQTCKCSCKNTDSRCKARQLELNERTCRCDKPRR
modifications: 125I-labeled VEGF-A
